According to paper doi:10.1101/2024.10.21.619419 (bioRxiv, 2024):

Biological target: the molecule itself
Experiment: SEC

B1: Bxb1 residues 2-500 (enzyme, Mycobacteriophage Bxb1, UniProt Q9B086 2-500, looked up)
chain: RALVVIRLSRVTDATTSPERQLESCQQLCAQRGWDVVGVAEDLDVSGAVDPFDRKRRPNLARWLAFEEQPFDVIVAYRVDRLTRSIRHLQQLVHWAEDHKKLVVSATEAHFDTTTPFAAVVIALMGTVAQMELEAIKERNRSAAHFNIRAGKYRGSLPPWGYLPTRVDGEWRLVPDPVQRERILEVYHRVVDNHEPLHLVAHDLNRRGVLSPKDYFAQLQGREPQGREWSATALKRSMISEAMLGYATLNGKTVRDDDGAPLVRAEPILTREQLEALRAELVKTSRAKPAVSTPSLLLRVLFCAVCGEPAYKFAGGGRKHPRYRCRSMGFPKHCGNGTVAMAEWDAFCEEQVLDLLGDAERLEKVWVAGSDSAVELAEVNAELVDLTSLIGSPAYRAGSPQREALDARIAALAARQEELEGLEARPSGWEWRETGQRFGDWWREQDTAAKNTWLRSMNVRLTFDVRGGLTRTIDFGDLQEYEQHLRLGSVVERLHTGMS
B1 was tested, and the “stoichiometry N” value was 2.
